Experimental data published in patent publication US20240209099A1.
Where two headings read alike, the source gives them in different places.

Legend:
[1] = target: Recombinant Rhesus macaque VEGFR2/KDR Protein, His tag (rhesus macaque); assay: ELISA, rhesus VEGFR2-his coated, anti-human Fc-HRP
[2] = target: Recombinant Human VEGFR2/KDR Protein, His tag (hVEGFR2-his) (human) (UniProt P35968); assay: ELISA, human VEGFR2-his coated, anti-human Fc-HRP
[3] = target: Recombinant Rhesus macaque VEGFR2/KDR Protein, His tag (rhesus macaque); assay: ELISA, rhesus VEGFR2-his coated, anti-human Fc-HRP; remark: listed apart in the source
[4] = target: Recombinant Human VEGFR2/KDR Protein, His tag (hVEGFR2-his) (human) (UniProt P35968); assay: ELISA, hVEGFR2-his coated (0.5 ug/ml), anti-human Fc-HRP
[5] = target: human VEGFR2 on HUVEC cells (human) (UniProt P35968); assay: flow cytometry on HUVEC cells, MFI, anti-human IgG (H+L)-PE
[6] = target: human VEGFR2 on HUVEC cells (human) (UniProt P35968); assay: flow cytometry on HUVEC cells, percent shifted cells (Shift %), anti-human IgG-PE
[7] = target: Recombinant Human VEGFR2/KDR Protein, His tag (hVEGFR2-his) (human) (UniProt P35968); assay: competition ELISA: hVEGFR2-his coated (1 ug/ml), antibody titrated, then 0.3 ug/ml hVEGF-A added and bound VEGF-A detected; blocked ligand hVEGF-A
[8] = target: Recombinant Human VEGFR2/KDR Protein, His tag (hVEGFR2-his) (human) (UniProt P35968); assay: competition ELISA: VEGF-A coated (0.25 ug/ml), antibody mixed with VEGFR2, detection with mouse anti-VEGFR2 serum and anti-mouse Fc-HRP; blocked ligand VEGF-A
[9] = target: Recombinant Human VEGFR2/KDR Protein, His tag (hVEGFR2-his) (human) (UniProt P35968); assay: competition ELISA: VEGF-A coated (0.25 ug/ml), antibody titrated together with 1 ug/ml human VEGFR2, detection with mouse anti-VEGFR2 serum and anti-mouse Fc-HRP; blocked ligand VEGF-A
[10] = target: Recombinant Rhesus macaque VEGFR2/KDR Protein, His tag (rhesus macaque); assay: competition ELISA: VEGF-A coated (0.25 ug/ml), antibody titrated together with 1 ug/ml rhesus VEGFR2, detection with mouse anti-VEGFR2 serum and anti-mouse Fc-HRP; blocked ligand VEGF-A

Chain of Recombinant Rhesus macaque VEGFR2/KDR Protein, His tag (rhesus macaque) (chain, as listed by the source): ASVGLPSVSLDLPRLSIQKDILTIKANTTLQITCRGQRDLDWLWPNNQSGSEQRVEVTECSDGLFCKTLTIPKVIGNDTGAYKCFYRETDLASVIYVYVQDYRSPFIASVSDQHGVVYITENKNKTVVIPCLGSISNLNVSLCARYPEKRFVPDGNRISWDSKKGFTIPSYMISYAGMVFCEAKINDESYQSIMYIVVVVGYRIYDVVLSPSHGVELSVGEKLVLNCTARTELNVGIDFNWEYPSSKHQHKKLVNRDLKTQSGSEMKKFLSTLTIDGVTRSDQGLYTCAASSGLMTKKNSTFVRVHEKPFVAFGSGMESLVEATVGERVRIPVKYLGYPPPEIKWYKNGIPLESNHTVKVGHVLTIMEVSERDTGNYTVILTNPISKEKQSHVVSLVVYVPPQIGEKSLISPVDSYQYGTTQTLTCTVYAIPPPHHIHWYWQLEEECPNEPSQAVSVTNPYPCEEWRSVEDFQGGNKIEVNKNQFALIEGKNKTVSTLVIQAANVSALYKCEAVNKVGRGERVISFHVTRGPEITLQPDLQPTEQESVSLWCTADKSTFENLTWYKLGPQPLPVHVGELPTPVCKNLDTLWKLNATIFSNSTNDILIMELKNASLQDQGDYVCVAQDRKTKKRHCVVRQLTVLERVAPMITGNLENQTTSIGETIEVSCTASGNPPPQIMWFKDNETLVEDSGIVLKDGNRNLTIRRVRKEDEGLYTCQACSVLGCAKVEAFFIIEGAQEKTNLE
Chain of Recombinant Human VEGFR2/KDR Protein, His tag (hVEGFR2-his) (human) (P35968 other isoform, or with tags, fused parts or gaps): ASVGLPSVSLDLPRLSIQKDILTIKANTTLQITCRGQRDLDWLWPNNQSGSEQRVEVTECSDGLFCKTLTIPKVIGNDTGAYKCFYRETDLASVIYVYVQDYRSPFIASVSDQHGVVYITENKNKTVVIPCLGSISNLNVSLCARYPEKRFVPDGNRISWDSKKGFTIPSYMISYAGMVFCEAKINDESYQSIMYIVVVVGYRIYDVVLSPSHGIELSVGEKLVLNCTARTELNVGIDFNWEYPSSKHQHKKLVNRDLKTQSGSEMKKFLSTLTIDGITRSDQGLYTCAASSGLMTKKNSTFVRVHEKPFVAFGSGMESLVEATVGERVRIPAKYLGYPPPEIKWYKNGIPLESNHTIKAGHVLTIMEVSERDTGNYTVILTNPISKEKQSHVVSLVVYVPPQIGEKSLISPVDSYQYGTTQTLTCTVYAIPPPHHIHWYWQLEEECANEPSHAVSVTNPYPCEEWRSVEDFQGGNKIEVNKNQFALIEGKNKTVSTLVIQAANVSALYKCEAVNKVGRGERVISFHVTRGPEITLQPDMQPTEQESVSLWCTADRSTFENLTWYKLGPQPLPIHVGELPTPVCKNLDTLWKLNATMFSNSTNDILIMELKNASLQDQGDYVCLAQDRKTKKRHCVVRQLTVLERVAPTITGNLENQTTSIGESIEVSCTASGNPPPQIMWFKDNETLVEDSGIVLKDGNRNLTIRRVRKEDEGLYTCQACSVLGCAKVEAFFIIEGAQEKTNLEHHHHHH
Chain of human VEGFR2 on HUVEC cells (human) (P35968 20-1356 V297I/Q472H limits assumed): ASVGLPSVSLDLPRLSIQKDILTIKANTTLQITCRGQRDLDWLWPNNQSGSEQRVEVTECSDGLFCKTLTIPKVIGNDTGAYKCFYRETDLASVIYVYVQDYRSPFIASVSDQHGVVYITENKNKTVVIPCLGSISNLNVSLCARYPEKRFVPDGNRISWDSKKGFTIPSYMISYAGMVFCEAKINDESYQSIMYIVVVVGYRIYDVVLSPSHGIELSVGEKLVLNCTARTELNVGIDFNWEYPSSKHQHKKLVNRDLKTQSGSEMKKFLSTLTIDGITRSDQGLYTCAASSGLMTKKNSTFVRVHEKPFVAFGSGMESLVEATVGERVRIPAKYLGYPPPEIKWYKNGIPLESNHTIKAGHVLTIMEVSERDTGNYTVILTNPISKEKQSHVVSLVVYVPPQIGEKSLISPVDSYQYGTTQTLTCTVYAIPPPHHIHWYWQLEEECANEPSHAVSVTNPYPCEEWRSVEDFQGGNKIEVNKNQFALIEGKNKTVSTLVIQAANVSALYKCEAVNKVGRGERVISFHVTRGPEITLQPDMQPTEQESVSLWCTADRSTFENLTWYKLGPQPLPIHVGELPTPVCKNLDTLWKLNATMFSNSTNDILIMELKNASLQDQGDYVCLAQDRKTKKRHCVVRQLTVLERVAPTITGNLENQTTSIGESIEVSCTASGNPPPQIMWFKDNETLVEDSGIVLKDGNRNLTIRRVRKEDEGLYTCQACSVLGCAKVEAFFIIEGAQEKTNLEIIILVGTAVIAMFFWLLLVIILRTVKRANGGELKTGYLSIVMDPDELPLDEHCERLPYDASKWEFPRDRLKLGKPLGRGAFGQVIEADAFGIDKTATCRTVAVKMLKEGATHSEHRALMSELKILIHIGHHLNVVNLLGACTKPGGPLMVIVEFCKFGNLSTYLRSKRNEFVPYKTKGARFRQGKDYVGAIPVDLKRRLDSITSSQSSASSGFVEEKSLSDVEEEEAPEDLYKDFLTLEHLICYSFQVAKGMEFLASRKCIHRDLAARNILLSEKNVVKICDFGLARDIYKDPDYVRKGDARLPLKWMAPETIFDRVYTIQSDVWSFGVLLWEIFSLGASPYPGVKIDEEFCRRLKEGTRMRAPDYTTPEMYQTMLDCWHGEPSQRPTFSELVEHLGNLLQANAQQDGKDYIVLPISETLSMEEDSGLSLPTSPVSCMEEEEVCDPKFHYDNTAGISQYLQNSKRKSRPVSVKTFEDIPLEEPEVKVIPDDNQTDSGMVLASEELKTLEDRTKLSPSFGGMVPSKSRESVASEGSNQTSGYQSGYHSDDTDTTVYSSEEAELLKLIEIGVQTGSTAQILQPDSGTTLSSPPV

EC50 [1]: 0.0088 µg/mL
EC50 [2]: 0.00871 µg/mL
EC50 [3]: 0.00919 µg/mL
EC50 [4]: 0.00926 µg/mL
EC50 (read off the curve) [5]: 0.1 µg/mL
EC50 [6]: 0.0682 µg/mL
IC50 [7]: 0.0285 µg/mL
IC50 [8]: 0.126 µg/mL
IC50 [9]: 0.849 µg/mL
IC50 [10]: 0.805 µg/mL
Substance: 1121B (benchmark antibody, Ramucirumab)
